Consider four substances from patent publication US20100247549A1.

Experiment [1] addresses Envelope glycoprotein (E) of parental DENV-4 (FRhL) (dengue virus type 4) (UniProt P09866).
The target in experiment [2] is Envelope glycoprotein (E) of antigenic variant DENV-4 v4 (Leu for Pro at position 176 in E) (dengue virus type 4) (UniProt P09866).
The target is the same in experiment [3]. The experiment is described as follows: cell-based or functional assay.
The target of experiment [4] is Envelope glycoprotein (E) of antigenic variant DENV-4 v3 (Glu for Lys at position 174 in E) (dengue virus type 4) (UniProt P09866). The experiment is described as follows: cell-based or functional assay.
Experiment [5] deals with Fc receptors on K562 cells. The experiment in a line: cell-based or functional assay.

In general, Kd refers to the equilibrium constant for the complex coming apart. “Humanized IgG 5H2 ΔD (IgG1 5H2 with a 9-amino-acid deletion, positions 231-239, at the N-terminus of the CH2 domain) (antibody)”: the values for the Kd in experiment [1] and in experiment [2] were 0.23 nM and 0.32 nM, respectively. Moreover, the results for the PRNT50 titer in experiment [3] and in experiment [4] were 0.5 µg/mL and more than 10 µg/mL, respectively.

With “IgG 1A5 ΔA (replacement amino acids at 327, 330 and 331 from the Fc of IgG4) (from UniProt P01857 1-330) (antibody)”, the enhancing activity of DENV-4 infection in K562 cells, % of cells infected in experiment [5] was found to be 37.6%.

Take “IgG 1A5 ΔB (replacement amino acids at 233-236 from the Fc of IgG2) (from UniProt P01857 1-330) (antibody)”: in experiment [5], the enhancing activity of DENV-4 infection in K562 cells, % of cells infected turned out to be 24%.

Take “IgG 1A5 ΔC (replacements of both variants ΔA and ΔB) (from UniProt P01857 1-330) (antibody)”: the enhancing activity of DENV-4 infection in K562 cells, % of cells infected in experiment [5] was determined as 18.8%.
